B1: antibody 380 (antibody, V domains shown)
VH: QVQLVESGGGVVQPGRSLRLSCAASGFTLKNYGMHWVRQAPGKGLEWVIVLSFDGSDEYKADSVRGRFTVSRDNSKNTLFLQMNSLRPDDTAVYYCAREQPTMIEGGRGPFDIWGQGTMVTVSS
VL: EVVMTQSPATLSVSPGDRATLSCRASQGVNSNLAWYQQKPGQAPRLLIYAASTRATGIPARFSASGSGTHFTLTISSLQSEDFAVYYCLQYNNWPPWTFGQGTKLEIK
B2: antibody 351 (antibody, V domains shown)
VH: HVQLVESGGGVVQPGRSLRLSCAASGFISRNYGMEWVRQAPGQGLEWVAGIWYDGSKKYYADSVKGRFTISRDTSKNTLFLQMDSLRAEDTAVFYCATATKTFCGGDCPPGGMDVWGQGTTVTVST
VL: SYVLTQPPSVSVAPGKTAWITCVGNNIESESVHWYQQRPGQAPVLVIYYDSDRPSGIPERFFGSNSGNTATLTISRVEAGDEADYYCQVWDSNSDLMVFGGGTKLTVL
B3: antibody 333 (antibody, V domains shown)
VH: QVHLVESGGGVVLPGRSLRLSCSASQFIFSNYDMHWVRQSPGMGLEWVAGISSDGSDKYYIDSVRGRFTISRDNAKNTLFLQMNSLTTEDTAVYSCAKGGGKFGQYWGRGTLVTVSS
VL: AIQMTQSPSSLSASVGDRVTITCRASQVIRNDLAWFQQKPGEAPNLLVYSASNLQSGVPSRFSGSGSGTDFTLTISSLQPEDFATYYCLQDYSYPYTFGQGTKLDMK
B4: antibody 343 (antibody, V domains shown)
VH: QVQLVESGGDVVQPGTSLRLSCAASGFTFNNYGFHWVRQAPGKGLEWVALISSDGASTHYADSVKGRFTISRDSSVNTLYLQMNSLSLEDTAVYYCATGHCGTTCYYFDYWGQGTLVSVSS
VL: DIQVTQSPSYLSASVGDRVTITCRASQTISTFLQWYQQKVGKAPKLLIYAASTLQSGVPSRFSGSGSGTDFSLTISSLQPEDFATYYCQQSYSAPLSFGGGTKVEIK
B5: antibody 332 (antibody, V domains shown)
VH: QVTLRESGPALVKPTQTLTLTCTFSGFSLSTSGMCVSWIRQPPGKALEWLALIDWDDDKYYSTSLKTRLTISKDTSKNQVVLTMTNMDPVDTATYYCARIHDDILTGYHYVDYWGQGTLVTVSS
VL: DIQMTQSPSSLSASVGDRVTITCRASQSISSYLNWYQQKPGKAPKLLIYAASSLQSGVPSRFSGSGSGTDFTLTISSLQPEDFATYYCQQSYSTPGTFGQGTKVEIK
B6: antibody 341 (antibody, V domains shown)
VH: QLQLQESGPGLVKPSETLSLTCTVSGGSISSSSYYWGWIRQPPGKGLEWIGSIYYSGSTYYNPSLKSRVTISVDTSKNQFSLKLSSVTAADTAVYYCARRPLRYFDWLTNFDYWGQGTLVTVSS
VL: EIVLTQSPATLSLSPGERATLSCRASQSVSSYLAWYQQKPGQAPRLLIYDASNRATGIPARFSGSGSGTDFTLTISSLEPEDFAVYYCQQRSNWPITFGQGTRLEIK
B7: antibody 434 (antibody, V domains shown)
VH: QVQLVQSGAEVKKPGASVQVSCKASGYTFSDYYIFWVRQAPGQGLEWMGCINPKSGGAIYAQRFQGRVTMTRDTSFNTAYMEMNRLGSDDTAVYYCVTRGPPDIAASGFAWHLDVWGQGTTVTVSS
VL: DIVMTQSPLSLPVTPGEPASISCRSSQSLLSSNGYNYLEWYLQKPGQSPQLLMYLGSNRASGVPDRFSGSGSGTDFTLKINRVEAEDVGVYYCMQALQTPLTFGGGTKVEIK
B8: antibody 443 (antibody, V domains shown)
VH: QMRLEESGPGLVKPSETLSLTCTVAGGSITSSDYFWGWLRQSPGKGLEWIASTYHGGSIQYHPALKSRVTISVDASKNQISLRLSSVTAADTAVYYCARDRGDDGPMGTYYFDHWGQGALVTVSS
VL: QSVLTQPPSVSGAPGQSVTISCAGSSSNIGAGHDVHWYQQIPGTAPKLLICGNTNRPSGVPERFSGSRSGTSASLAITGLQAEDEAVYYCQSYDPSHVFFGTGTKLTVL
B9: antibody 432 (antibody, V domains shown)
VH: QVQLQESGPGLVKPSQTLSLTCTVSGGSISSGGYYWNWIRQHPGKGLEWIGYIYDSGSTYYNPSLKSRLTLSIDTSQNQFSLRRTSVTAADTAVYYCARGRQYDYDRTGLQYYFDYWGQGTLVTVSS
VL: EIVLTQSPGTLSLSPGERATLSCRASQSFSSSYLAWYQQKPGQAPRLLIYGASSRATGIPDRFSGSGSGTDFTLTISRLEPEDFAVYYCQQYGTSSLTFGGGTKVEIK
B10: antibody 501 (antibody, V domains shown)
VH: QVQLVQSGAEVKKPGASVKVSCKASGYTFTSYYVHWVRQAPGQSLEWMGVISPSTGSTTYAQNFQGRVTMTRDTSTTTVYMELSSLRSEDTAVYYCARDDYYDSTRYFDLWGRGTLVTVSS
VL: QSALTQPASVSGSPGQSISFSCTGTSSDIGAYNYVSWYQQHPGRAPKLMIYDVGNRPSGVSNRFSGSKSGNTASLTISGLQAEDEADYYCSSYTSSSTQVFGTGTKVTVL
B11: antibody 482 (antibody, V domains shown)
VH: EVQLVESGGGLVQPGGSLRLSCAASGFTFSSYWMTWVRQAPGKGLEWVANIKQDGSEKYYVDSVKGRFTISRDNAKNSLYLQMNSLRAEDTAVYYCARGVGSWYLGFDYWGQGTLVTVSS
VL: NFMLTQPHSVSESPGKTVTISCTGSSGSIASNYVQWYQQRPGSAPTTVIYEDNQRPSGVPDRFSGSIDSSSNSASLTISGLKTEDEADYYCQSYDGSSYVFGTGTKVTVL
B12: antibody 506 (antibody, V domains shown)
VH: QITLKESGPTLVKPTQTLTLTCTFSGFSLSTSGVGVGWIRQPPGKALEWLALIYWDDDKRYSPSLKSRLTITKDTSKNQVVLTMTNMDPVDTATYYCAHHSLSSIFDYWGQGTLVTVSS
VL: QSALTQPASVSGSPGQSITISCTGTSSDVGDYNYVSWYQQHPGKAPKLMIYEVSNRPSGVSNRFSGSKSGNTASLTISGLQAEDEADYYCSSYTSSSTVFGGGTKLTVLG
B13: antibody 465 (antibody, V domains shown)
VH: QITLKESGPTLVKPTQTLTLTCTFSGFSLSTSGVGVGWIRQPPGKALEWLALIYWDDDKHYSPSLKSRLTITKDTSKNQVVLTMTNMDPVDTATYYCAHMYYDILSGYYYGMDVWGQGTTVTVSS
VL: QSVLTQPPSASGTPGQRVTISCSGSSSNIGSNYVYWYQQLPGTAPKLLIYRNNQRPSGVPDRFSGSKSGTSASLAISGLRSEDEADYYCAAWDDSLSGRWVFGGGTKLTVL
B14: antibody 467 (antibody, V domains shown)
VH: QVQLVQSGAEVKKPGASVKVSCKASGYTFISYGISWVRQAPGQGLEWMGWISAYNGNTNYAQKLQGRVTMTTDTSTSTAYMELRSLRSDDTAVYYCARGLWPGYYYGSGSYSAFHIWGQGTMVTVSS
VL: QSALTQPPSASGSPGQSVSISCTGTSSDVGGYNYVSWYQQHPGKAPKLMIYEVSKRPSGVPDRFSGSKSGNTASLTVSGLQAEDEADYYCSSYAGSNKVFGGGTKLTVL
B15: antibody 502 (antibody, V domains shown)
VH: QVQLVQSGAEVKKPGASVKVSCKASGYTFTSYYMHWVRQAPGQGLEWMGIINPSGGSTSYAQKFQGRVTMTRDTATSTVYMELSSLRSEDTAVYYCARGGGQISMIIVVMDDAFDIWGQGTMVTVSS
VL: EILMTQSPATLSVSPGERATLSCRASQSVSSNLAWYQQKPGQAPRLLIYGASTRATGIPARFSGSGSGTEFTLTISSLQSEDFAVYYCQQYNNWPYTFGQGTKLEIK
B16: antibody 508 (antibody, V domains shown)
VH: EVQLVQSGAEVKKPGATVKISCKVSGYTFTDYYMHWVQQAPGKGLEWMGLVDPEDGETIYAEKFQGRVTITADTSTDTAYMELSSLRSEDTAVYYCAVENMITFGGVIVKRGAFDIWGQGTMVTVSS
VL: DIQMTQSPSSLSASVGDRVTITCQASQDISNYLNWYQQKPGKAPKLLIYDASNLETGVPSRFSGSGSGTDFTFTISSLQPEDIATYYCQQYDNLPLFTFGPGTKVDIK
B17: antibody 405 (antibody, V domains shown)
VH: not shown
VL: QSALTQPRSVSGSPGQSVTISCTGTSSDVGGYNYVSWYQQHPGKAPKLMIYDVSKRPSGVPDRFSGSKSGNTASLTISGLQAEDEADYYCCSYAGSYNVVFGGGTKLTVL
B18: antibody 395 (antibody, V domains shown)
VH: QVQLVQSGSELKKPGASVKLSCQASGYTFSNHAMNWVRQAPGQGLEWMGWINTNTGNPTYAQGFTGRFVFSLDTSVGTAYLHISSLKAEDTAFYYCARASARPGVATNLDFWGQGTLVVVSS
VL: DIQMTQSPSSLSASVGDRVTITCRTSQNIDNYLNWYQQKPGKAPNLLIYAASRLHSGVPSRFSGSGSGTDFTLIISSLQPEDLATYYCQQSYSNPLTFGPGTKVDIR
B19: antibody 409 (antibody, V domains shown)
VH: QVTLRESGPALVKPTQTLTLTCTFSGFSLSTSGMCVSWIRQPPGKALEWLALIDWDDDKYYSTSLKTRLTISKDTSKNQVVLTMTNMDPVDTATYYCARTTYYYVSGRRAEFDPWGQGTLVTVSS
VL: NFMLTQPHSVSESPGKTVTISCTGSSGSIASNYVQWYQQRPGSAPTTVIYEDNQRPSGVPDRFSGSIDSSSNSASLTISGLKTEDEADYYCQSYDSSNQGVFGGGTKLTVL

These binders were tested against T1, SARS-CoV-2 full length spike protein, V483A mutant, expressed on CHO cells (SARS-CoV-2, UniProt P0DTC2 14-1273) (assay: flow cytometry on CHO cells expressing spike V483A).
T1 construct: also called SARS-CoV-2 V483A mutant

| Binder | binding result |
| --- | --- |
| B1 | no binding |

What follows are binders tested against T2, SARS-CoV-2 full length spike protein, V483A mutant, expressed on the surface of CHO cells (SARS-CoV-2, UniProt P0DTC2 14-1273) (assay: flow cytometry, CHO cells expressing full-length spike V483A).
T2 construct: also called SARS-CoV-2 V483A mutant

| Binder | binding result |
| --- | --- |
| B2 | no binding |
| B3 | no binding |
| B4 | no binding |
| B5 | no binding |
| B6 | no binding |

Each binder was assayed against T3, SARS-CoV-2 full length spike protein, V483A mutant (SARS-CoV-2, UniProt P0DTC2 14-1273) in the same assay as above.
T3 construct: also called SARS-CoV-2 V483A mutant

| Binder | binding result |
| --- | --- |
| B7 | no binding |
| B8 | no binding |
| B9 | no binding |

What follows are binders tested against T4, SARS-CoV-2 full length spike protein, V367F mutant (SARS-CoV-2, UniProt P0DTC2 14-1273) (assay: flow cytometry, CHO cells expressing full-length spike V367F).
T4 construct: also called SARS-CoV-2 V367F mutant

| Binder | binding result |
| --- | --- |
| B9 | no binding |

The binders below were run against T2, SARS-CoV-2 full length spike protein, … (assay: not given).

| Binder | median fluorescence intensity, fold over isotype control |
| --- | --- |
| B6 | 1.01 fold over isotype |

The binders below were run against SARS-CoV-2 full length spike protein, D614G mutant, expressed on CHO cells (SARS-CoV-2, UniProt P0DTC2 14-1273) (assay: not given).

| Binder | median fluorescence intensity, fold over isotype control |
| --- | --- |
| B10 | 46.1 fold over isotype |
| B11 | 14.3 fold over isotype |
| B12 | 69.5 fold over isotype |
| B13 | 68.3 fold over isotype |
| B14 | 7.54 fold over isotype |
| B15 | 77.3 fold over isotype |
| B16 | 3.99 fold over isotype |

The binders below were run against SARS-CoV-2 full length spike protein, V367F mutant, expressed on CHO cells (SARS-CoV-2, UniProt P0DTC2 14-1273) (assay: not given).

| Binder | median fluorescence intensity, fold over isotype control |
| --- | --- |
| B10 | 30 fold over isotype |
| B11 | 2.89 fold over isotype |
| B12 | 42.3 fold over isotype |
| B13 | 37.3 fold over isotype |
| B14 | 30.6 fold over isotype |
| B15 | 51.8 fold over isotype |
| B16 | 2.71 fold over isotype |

These binders were tested against T1, SARS-CoV-2 full length spike protein, … (assay: not given).

| Binder | median fluorescence fold over isotype control |
| --- | --- |
| B17 | 7.51 fold over isotype |
| B18 | 8.92 fold over isotype |
| B19 | 9.21 fold over isotype |

From patent US20210292393A1 (published 2021)
